Test results reported in the DeepSol protein solubility set.

Test: soluble on expression in E. coli; label from the status in PepcDB or PDB records

**Q.** Which “soluble on expression in E. coli” value does the source give for “MDLFRKPKKRNAPVVRKKESSSDEDQDSEVKDVIQKRRRTNPMVQSTKQLDASTRRADNSSDDSDDSDDNQDIAVATHSFAASGDAGPSGPRDQGATATLEVDTDYSHDAQAQFERVQQQLKEGVEKDGKILYKGSALYGAKEAKDTAKGNAASGYNRVGPVRAPQFLRQTVRWDFAPDICKDYKETGFCTFGDSCKFVHDRSDYKHGWEIDEEYEAGKYGAEDDANYEIHEGDDTFPEDCFICGNPFVDPIVTKCKHYFCTGCALKSFQKSSKCPICQQNTENIMNTAKELLTYLKRKKQQQKQEAEKQEEEKDSDDDEKPHECDDHHHHDHEDEPEEPENDSNVPEAEEKSDEEQEIMMEDVEGLEGGENDSESDDDDAEKD” here?
**A.** soluble

**Q.** For “MPKITVYTGKEVLQIDAKEGSSLLDILAENSLYVEAPCGGKGICGKCKVAVKKDGKPYLENITKEEKRLLTSDELQKGIRLCCNLKVFESLEVFLPHSKIGAKILSGLYTLEHHHHHH”, which “soluble on expression in E. coli” value is on record?
**A.** not soluble

**Q.** Which “soluble on expression in E. coli” value does the source give for “MSLSVEQANLILNHLPMEITFVNKEDIFQYYNDNTPADEMIFKRTPSQVGRNVELCHPPKYLDKVKTIMKGLREGSKDKYEMWFKSESRGKFVHITYAAVHDEDGEFQGVLEYVQDIQPYREIDTDYFRGLEEGHHHHHH” here?
**A.** soluble

**Q.** For “MSLQSSIYRIRHLAKPAYREEFKGDIECSTAAYKEVLEDTSTDSTSKLPLEAKFGKMSIIKLVLLLIISTIIYANDKNISNLHITSDSLIIDRTKQKAAYLGNVIVYFDNAILRTKELYIFYKTIDEKQTIDHIVVPTKLTVERKINNELLLADSAKYFCDNKQLILLGNVILQRDDNVLKTNKLIYYVDIIKK”, which “soluble on expression in E. coli” value is on record?
**A.** not soluble

**Q.** For “MSLTPLTGQDTPALDECVVDAVDVHAFEVPTDGPEGREQDGTLEWDATTLVLVRVHAGGRTGLGYTYGDVSVASFAHSVLGPVVKGRPVSSPPALWELMGARMRNAGRPGVGAMALSAVDVALWDLKARLLGLPLVHLLPAHHDRVPVYGSGGFTNYPLDRLTDQLAGWVRQGIGRVKLKTSRDPEADPRRLTAVRRAVGDGPEVFTDANGALGRKAALYWAHRFHDEWDVRWFEEPVASADLEGLRMLRERGPARLEITAGEYAFTAQDFANLTEGPAVDCLQADVTRCGGVTGVLEVAGLSAARHLDLSAHCAPAVSAHAFCAVRRLRHLEYFHDHVRVERLLFDGVPSPEGGALRPDTSRPGLGLEVRWADAEPYRVRGVRPPREGHHHHHH”, which “soluble on expression in E. coli” value is on record?
**A.** soluble

**Q.** For “MRITDVRTAVVEANYDWTFVRIYTDEGLTGLGESFLAPGLTGIIRDLKPLLVGQDPLDVDRLFSRMRWAASGAGSVAGLVYNAISGIEAALWDLAGKHYGVPVFRLLGGRHRDRVRVYADCHAGEALEALSSVMIPRRPRWLSPAGAPPPAGDPVHGRAFGLEEPGEAFTPEMYAARAREVAAMGFTALKFDLDVPNPHTLDPHSGTLTHAEIRHMVSLVEAVREAVGDGVDIAFDLHWRYNVSDAVRLACELEPYGLMWLEDPVPPENVEALRRVTRSTRTPIASGENLYLRHGFREALERGALDIAAPDLQKCGGLLEGRRIADMADAHYVAVAPHCIASPIGTVAAAHVAAAVPNFLALEWHGMSVPFWEEMAAGFDGPVIRDGYIEVPEAPGLGVELNEEVARRYAREGEPFF”, which “soluble on expression in E. coli” value is on record?
**A.** soluble

**Q.** For “MGSDKIHHHHHHMVQLIKKYEDLLCLLDELIKNESTFRWDEFYLERERDVPFFVLAPDEQLVEYVCTGLIESGKVLELGCGPGRNAIYLAENHFEVDVVDLSQKAIDWAMDRANERKASIRFIRENIFNLNVNKASYDLVYDSGCFHHIPPHRRMDYIHLVTTALKPGGHFGLTCFIENGPLGGAAISDLDVYRQQSLQGGLGFTEQKLIQIFDDFAVIEIRKMKEYPNDSSRFGVNGLLTALFQKKKVEKVK”, which “soluble on expression in E. coli” value is on record?
**A.** not soluble

**Q.** With “MKVWRVEKREEGWRLDQFLKEKTPSWISRSMIQKAIKEGKVKVNGQIKKPSYKLKEGEIVEVDLPEKPQEATVQPEEIELKVLYEDRDIIVIDKPGDMIVHPVPSKLSGTLVNALLHHCKDLQGVGGKLRPGIVHRLDKETSGVIVVAKNDFAHQSLSKQFKDRKVKKTYILLVKGKMKNDEGVIDLPLARHPVLRIKMAVVETGKEAITEYRVLKRFDDVATLVLAFPKTGRTHQIRVHMKSLGHPIMGDKIYGKPKEDEIFGIKRQMLHALKLGFFHPRTGEWMEFVSPLPEDFKEAIRRIHEYVRERS” as the sequence, how does the “soluble on expression in E. coli” value read?
**A.** soluble

**Q.** Which “soluble on expression in E. coli” value does the source give for “MSVSGLKAELKFLASIFDKNHERFRIVSWKLDELHCQFLVPQQGSPHSLPPPLTLHCNITESYPSSSPIWFVDSEDPNLTSVLERLEDTKNNNLLRQQLKWLICELCSLYNLPKHLDVEMLDQPLPTGQNGTTEEVTSEEEEEEEEMAEDIEDLDHYEMKEEEPISGKKSEDEGIEKENLAILEKIRKTQRQDHLNGAVSGSVQASDRLMKELRDIYRSQSYKTGIYSVELINDSLYDWHVKLQKVDPDSPLHSDLQILKEKEGIEYILLNFSFKDNFPFDPPFVRVVLPVLSGGYVLGGGALCMELLTKQGWSSAYSIESVIMQINATLVKGKARVQFGANKNQYNLARAQQSYNSIVQIHEKNGWYTPPKEDG” here?
**A.** soluble

**Q.** Which “soluble on expression in E. coli” value does the source give for “MSLKTERILLPVDGSESSYRAAYCAAQAAQLCGAEVLLLHCVDQTEQNGEAPLVDTTLAEDTTTNRHPKQADALGMATANDLIGPVRDILEDHGIRYMERIVEGEPATCIPRVAQNTRCGLIVMGRSGKTPSGRLPVGSVTGRVVGAAHCPVIVAEGHHHHHH” here?
**A.** soluble

**Q.** With “MAHKQSTNNETSNGSTTEIIDETDARAQLESGRTTPTLLLRLEHPRNERRVAFHAGIIDNEHLNRKKSKCCCIYKKPLAFGESSSEDDEDCEHCFGHPEKRQRNAKHNHNHGDKPCTEASHPEGPSTSTQAAHISQPPAEPVESKTDPKPPTPGVDFEQTGSSMGHHHHHHSH” as the sequence, how does the “soluble on expression in E. coli” value read?
**A.** soluble

**Q.** With “MTIKEMPQPKTFGELKNLPLLNTDKPVQALMKIADELGEIFKFEAPGRVTRYLSSQRLIKEACDESRFDKNLSQALKFVRDFAGDGLFTSWTHEKNWKKAHNILLPSFSQQAMKGYHAMMVDIAVQLVQKWERLNADEHIEVPEDMTRLTLDTIGLCGFNYRFNSFYRDQPHPFITSMVRALDEAMNKLQRANPDDPAYDENKRQFQEDIKVMNDLVDKIIADRKASGEQSDDLLTHMLNGKDPETGEPLDDENIRYQIITFLIAGHETTSGLLSFALYFLVKNPHVLQKAAEEAARVLVDPVPSYKQVKQLKYVGMVLNEALRLWPTAPAFSLYAKEDTVLGGEYPLEKGDELMVLIPQLHRDKTIWGDDVEEFRPERFENPSAIPQHAFKPFGNGQRACPGQQFALHEATLVLGMMLKHFDFEDHTNYELDIKETLTLKPEGFVVKAKSKKIPLGGIPSPSTEQSAKKVRKKAENAHNTP” as the sequence, how does the “soluble on expression in E. coli” value read?
**A.** soluble

**Q.** Which “soluble on expression in E. coli” value does the source give for “MGSDKIHHHHHHMKFMKSLEPLNNHDETAAGDAMRGPSGGGNSASILNEAENILRDYYGGAIESLFIERLVVGVFFTGVKLSNGCGGVAYTPPETIRNASRRILRGSPSAIRGKSADVVISGKIPSPFADVIRLAAINALSVPFFQDGRYDFEKSDDLSDVSHLFTGRRVCMVGAIVPLLKRFKKMGVSEIKVIDRKKDSQIEVELACGEFLSPEQTAETIAQCETAVFTGAAVANGTIEHLLRLVPKEAAVAVVGPTAGFIPDPLFRRNVALVGTAMVTDIAAALDIIAEGGGAYPLFGRCVKKINILNRKRIEQLKPGSKTA” here?
**A.** not soluble

**Q.** For “MGSDKIHHHHHHMEKIVQTAGRNALGEFAPEFAHFNDDVLFGENWNNQDIDVKTRSIITVVALMASGITDSSLIYHLQNAKEHGVTQKEIAAVITHVAFYAGWPKAWAVFNLAKEVWEAGEGDLPYEEEAMRAHAKEMAFPIGAPNDGFAQYFSGRSFLAPISTSQIGIFNVTFEPGCRNNWHIHHAKSGGGQILVCVAGRGYYQEEGKEAVEMKPGDCINIPTGVKHWHGAAPDEWFSHLAIEVPGVDCSNEWCEAVSEKEYAGLR”, which “soluble on expression in E. coli” value is on record?
**A.** not soluble

**Q.** Which “soluble on expression in E. coli” value does the source give for “MKYMIPDEEFIRREGVPITKEEIRAVSIGKLNLNKDDVVVDVGCGSGGMTVEIAKRCKFVYAIDYLDGAIEVTKQNLAKFNIKNCQIIKGRAEDVLDKLEFNKAFIGGTKNIEKIIEILDKKKINHIVANTIVLENAAKIINEFESRGYNVDAVNVFISYAKKIPSGHMFLAKNPITIIKAVR” here?
**A.** soluble

**Q.** For “MGSDKIHHHHHHMSITPHRLPVAPVIVREAYLSLLRKGWRPGDRDLKTPRNVKIETGIIEKAEGSALVKLGKTQVIAGVKAGVGAPFKDTPNQGVLTVHAEFVPLASPVFEPGPPDENAIELARVVDRSLREVGAVDLESLVIRPGEKVWVLWVDLYIIDHDGNLFDASMLATMAVLLTARLPRYEESETGEIIISKEGEGEELKVKTRVVTVTTAKIDRYIVVDPNIEEEAVSDVRLVTAVDENGRIVGLQKTGMGSLTEADIETMIGYSLEASKVYFKALEEAIKP”, which “soluble on expression in E. coli” value is on record?
**A.** not soluble

**Q.** Which “soluble on expression in E. coli” value does the source give for “MSLEVIKHDGPGRLGVIRLEPPVQTPALAGVDFTLSPFNSFFYPKDYKEYDFNLAPAIPLSYYTPDEIIKKAVKRLWEVDYSKFNAFYFPALKRTKHYEELFKIIEENDFDAIYIGNSKSMIKDYRGFVFTMRELREKFPNAVLITDLEPFFYPLAVYLGIDAFDIRSLKIYSYEGLGFTQFSPIIWDEPKEDPVEYAKKIIRLIRIAIHEGKLRYLVENFLPTSMNAGILRIADRENIEYLEKYTPVDDKTVVFISDYSMTRPEVYRWAKRVRERFEPPKDIELLLILPCSAKKPYSRSRSHTLYRSAVKEALGEKMHRVHELIVTSPYGVVPREWEWIAKYDIVVTGHWSEREVRLAGELLADVLEKYPDIPIIAHVEGGYREAVKLAMELSGRDVIFTAKGNSTTSRESLANLTKTLKEFDVRDVDKEYRRYRFYENIRKIFDFYFGLNAGYAVLPERAQVVGSKMLRLIVDNQQTGTFQEGVISVTPWGMQRIYDELHSYWVEIDFDVRGDIFAAGVGSADEKIRPNDWVGVVRDGKVVAVGRAVLSGEEMVKAKRGVAVKVKKKAKEGHHHHHH” here?
**A.** soluble

**Q.** Which “soluble on expression in E. coli” value does the source give for “MAQTNLSFNPSPRYKSKKGWYKDTPPKEKGGMPTEVEIAGPIVIENKFIDPKTNTEKLIITDEDQKEIVESSDILTTQKLPSLMKYGFSINEKYTKDLGYALQQMRNQLPISYLYEGVGILETPFGPIVSLSEIYTTKEFDNKSPSDAICDNAYDLTPKGTFDNWFNMYLKEVKGSLLLELAVVFGISALVTSFLKHKHETEFAGIIFSFTGQSSTGKSTAASLAVSVAGNPTKGNETLFRNWNATRNALEGYLSNNFGIPIVFDELSSATFRDTTGLLYSITEGQGRQRSNVHGEVKTPKNWGTSVISTSEHSIFNDSAQNDGLRVRTIEINEQFTTNATNADNIKKAVALNYGHVLPLVAKYLINREDEVIQWFYKEVDWFEAKLKDDKSNTGNRMFKRYAVITTSAKILGRVLATDIDIAKIRDYFIDYHGHTISERSLADKAIDVIIQFVAQNRGKFSDEGALKNMFENYGLISLKDDHIEVKMIANVFKQMLNNHQFQDVNNVVNALRDKGFILADRGRQTTKRSVKDNSGKKQSLVFYHLKLDVEFASILGLTKDKSLIQNWTPANDNKAAKELFKSANEGIGPSGVHEDFLEHHHHHH” here?
**A.** not soluble

**Q.** With “MSLQEGEFEPTWESLQNYKVPEWFRNAKFGIWAHWGPQCVEGSGDWMARSLYLEGSREYKHHVEHYGHPSEVGFKDILPLFKAEKWDPDKLVSFYKKIGAQYFFALGNHHDNYDLWDSQYQEWNSVNIGPKKDILAGWAEAAKKNGLPFGISFHADHAWSWYEPAQRYDRHGEKAGVPYDGCLTKEDGKGKWWEGYDPQKLYAQNHPLSAGSWADGMIHRQWAWGNGVCIPTQEYVTNFYDRTVDAINRYNPDLIYFDVTGVPFYPISDAGLKIAAHFYNHNMVVRKGDFSAVMFGKILTDEQRKALVWDVERGSPNSIYEEPWQTCSCLGGWHYDTRLAENGWYKSASDVVKLLVDVVSKNGNLLLSVPLRADGTFDEKEEAILNEFGNWMSMNKEAIYDTRPWKVFGEGPIANADIKINAQGFNEGAYTKATASEIRFTQTKKYLYATVLAWPEEKQVVIQSLATGSELYPDKITKIELLGYGKVSFTRTAQGVVIDMPDVQLNKIAPVFKIKKEGHHHHHH” as the sequence, how does the “soluble on expression in E. coli” value read?
**A.** soluble
